The data set concerns the molecule itself. Put plainly: SEC; calibrated gel-filtration column (Superdex 75 or Superdex 200), each protein run alone.

Numbering of substitutions follows the chain as printed.

B1: full-length LNX2 (enzyme, human, UniProt Q8N448 1-690, looked up)
chain: MGTTSDEMVSVEQTSSSSLNPLCFECGQQHWTRENHLYNYQNEVDDDLVCHICLQPLLQPLDTPCGHTFCYKCLRNFLQEKDFCPLDRKRLHFKLCKKSSILVHKLLDKLLVLCPFSSVCKDVMQRCDLEAHLKNRCPGASHRRVALERRKTSRTQAEIENENGPTLLDPAGTLSPEADCLGTGAVPVERHLTSASLSTWSEEPGLDNPAFEESAGADTTQQPLSLPEGEITTIEIHRSNPYIQLGISIVGGNETPLINIVIQEVYRDGVIARDGRLLAGDQILQVNNYNISNVSHNYARAVLSQPCNTLHLTVLRERRFGNRAHNHSDSNSPREEIFQVALHKRDSGEQLGIKLVRRTDEPGVFILDLLEGGLAAQDGRLSSNDRVLAINGHDLKYGTPELAAQIIQASGERVNLTIARPGKPQPGNTIREAGNHSSSSQHHTPPPYYSRPSSHKDLTQCVTCQEKHITVKKEPHESLGMTVAGGRGSKSGELPIFVTSVPPHGCLARDGRIKRGDVLLNINGIDLTNLSHSEAVAMLKASAASPAVALKALEVQIVEEATQNAEEQPSTFSENEYDASWSPSWVMWLGLPSTLHSCHDIVLRRSYLGSWGFSIVGGYEENHTNQPFFIKTIVLGTPAYYDGRLKCGDMIVAVNGLSTVGMSHSALVPMLKEQRNKVTLTVICWPGSLV
notes: Ligand of Numb protein-X 2 (LNX2), human, full length (last residue Val690); The methods say in general that MBP-tagged proteins were cleaved with TEV protease before size exclusion; MBP-tagged FL-LNX2 was used uncleaved in some ubiquitination assays; also called FL-LNX2; Ligand of Numb Protein-X 2; source: E. coli BL21 (DE3), purified (amylose sepharose, size exclusion)
On to B1, for which the stoichiometry N (in general, a count of units in the complex or per binding partner) worked out at 2.

B2: full-length LNX2 triple mutant (Lys109Ala, Ser688Asp, Val690Glu) (enzyme, human, UniProt Q8N448 1-690, looked up)
chain: B1 chain with K109A, S688D, V690E
notes: LNX2, human, full length, with Lys109Ala, Ser688Asp and Val690Glu; also called triple mutant of human FL-LNX2; source: E. coli BL21 (DE3), purified
As to B2, the binding result is “binds”.

B3: Zn-RING-Zn domain of LNX2 (aa 20-147) (domain or fragment, human, UniProt Q8N448 20-147, looked up)
chain: NPLCFECGQQHWTRENHLYNYQNEVDDDLVCHICLQPLLQPLDTPCGHTFCYKCLRNFLQEKDFCPLDRKRLHFKLCKKSSILVHKLLDKLLVLCPFSSVCKDVMQRCDLEAHLKNRCPGASHRRVAL
notes: Genes were cloned into pGEX6P-1 or pMAL; The last six residues are not in the crystallographic model; Four zinc ions per monomer; source: E. coli BL21 (DE3), purified (glutathione or amylose sepharose, tag cleaved, Superdex size exclusion)
For the protein B3, the “stoichiometry N” value was determined as 2.

B4: Zn-RING-Zn domain of LNX2 (aa 20-147) Asp45Ala (domain or fragment, human, UniProt Q8N448 20-147, looked up)
chain: B3 chain with D26A
notes: PDB 5DIN is the wild-type parent of the same limits; also called Asp45Ala mutant; source: E. coli BL21 (DE3), purified
Take B4: the “stoichiometry N” value amounted to 2.

Values taken from PMC4741457, “Structural basis for the indispensable role of a unique zinc finger motif in LNX2 ubiquitination” (Oncotarget, 2015).
